Results taken from patent publication US20250032576A1, “CNP Therapy” (BIOMARIN PHARMACEUTICAL INC., priority 2021, published 2025).
Where a chain is given by its changes, count along the chain named. “And” between values parts separate entries of the source, which are not always exact repeats. Equal values may be shown once.

B1: Arg957Cys: NPR2 protein-altering variant, expression construct transfected into HEK293 cells (protein)
chain: RNLTLAVVLPEHNLSYAWAWPRVGPAVALAVEALGRALPVDLRFVSSELEGACSEYLAPLSAVDLKLYHDPDLLLGPGCVYPAASVARFASHWRLPLLTAGAVASGFSAKNDHYRTLVRTGPSAPKLGEFVVTLHGHFNWTARAALLYLDARTDDRPHYFTIEGVFEALQGSNLSVQHQVYAREPGGPEQATHFIRANGRIVYICGPLEMLHEILLQAQRENLTNGDYVFFYLDVFGESLRAGPTRATGRPWQDNRTREQAQALREAFQTVLVITYREPPNPEYQEFQNRLLIRAREDFGVELGPSLMNLIAGCFYDGILLYAEVLNETIQEGGTREDGLRIVEKMQGRRYHGVTGLVVMDKNNDRETDFVLWAMGDLDSGDFQPAAHYSGAEKQIWWTGRPIPWVKGAPPSDNPPCAFDLDDPSCDKTPLSTLAIVALGTGITFIMFGVSSFLIFRKLMLEKELASMLWRIRWEELQFGNSERYHKGAGSRLTLSLRGSSYGSLMTAHGKYQIFANTGHFKGNVVAIKHVNKKRIELTRQVLFELKHMRDVQFNHLTRFIGACIDPPNICIVTEYCPRGSLQDILENDSINLDWMFRYSLINDLVKGMAFLHNSIISSHGSLKSSNCVVDSRFVLKITDYGLASFRSTAEPDDSHALYAKKLWTAPELLSGNPLPTTGMQKADVYSFGIILQEIALRSGPFYLEGLDLSPKEIVQKVRNGQRPYFRPSIDRTQLNEELVLLMERCWAQDPAERPDFGQIKGFIRRFNKEGGTSILDNLLLRMEQYANNLEKLVEERTQAYLEEKRKAEALLYQILPHSVAEQLKRGETVQAEAFDSVTIYFSDIVGFTALSAESTPMQVVTLLNDLYTCFDAIIDNFDVYKVETIGDAYMVVSGLPGRNGQRHAPEIARMALALLDAVSSFRIRHRPHDQLRLCIGVHTGPVCAGVVGLKMPRYCLFGDTVNTASRMESNGQALKIHVSSTTKDALDELGCFQLELRGDVEMKGKGKMRTYWLLGERKGPPGLL
B2: Val965Asp: NPR2 protein-altering variant, expression construct transfected into HEK293 cells (protein)
chain: B1 chain with C935R, V943D
B3: Gly917Arg: NPR2 protein-altering variant, expression construct transfected into HEK293 cells (protein)
chain: B1 chain with G895R, C935R
B4: Leu956Gln: NPR2 protein-altering variant, expression construct transfected into HEK293 cells (protein)
chain: B1 chain with L934Q, C935R
B5: Trp42Arg: NPR2 protein-altering variant, expression construct transfected into HEK293 cells (protein)
chain: B1 chain with W20R, C935R
B6: Thr297Met: NPR2 protein-altering variant, expression construct transfected into HEK293 cells (protein)
chain: B1 chain with T275M, C935R
B7: Ile494Ser: NPR2 protein-altering variant, expression construct transfected into HEK293 cells (protein)
chain: B1 chain with I472S, C935R
B8: Glu77Lys: NPR2 protein-altering variant, expression construct transfected into HEK293 cells (protein)
chain: B1 chain with E55K, C935R
B9: Lys1006Thr: NPR2 protein-altering variant, expression construct transfected into HEK293 cells (protein)
chain: B1 chain with C935R, K984T
B10: Ser522Pro: NPR2 protein-altering variant, expression construct transfected into HEK293 cells (protein)
chain: B1 chain with S500P, C935R
B11: Arg601Ser: NPR2 protein-altering variant, expression construct transfected into HEK293 cells (protein)
chain: B1 chain with R579S, C935R
B12: Ala48Ser: NPR2 protein-altering variant, expression construct transfected into HEK293 cells (protein)
chain: B1 chain with A26S, C935R
B13: Glu389Asp: NPR2 protein-altering variant, expression construct transfected into HEK293 cells (protein)
chain: B1 chain with E367D, C935R
B14: Thr861Ile: NPR2 protein-altering variant, expression construct transfected into HEK293 cells (protein)
chain: B1 chain with T839I, C935R
B15: Leu1009Val: NPR2 protein-altering variant, expression construct transfected into HEK293 cells (protein)
chain: B1 chain with C935R, L987V
B16: Pro301Ser: NPR2 protein-altering variant, expression construct transfected into HEK293 cells (protein)
chain: B1 chain with P279S, C935R
B17: Gly209Val: NPR2 protein-altering variant, expression construct transfected into HEK293 cells (protein)
chain: B1 chain with G187V, C935R
B18: Lys629Arg: NPR2 protein-altering variant, expression construct transfected into HEK293 cells (protein)
chain: B1 chain with K607R, C935R
B19: Val553Leu: NPR2 protein-altering variant, expression construct transfected into HEK293 cells (protein)
chain: B1 chain with V531L, C935R
B20: Arg562Gln: NPR2 protein-altering variant, expression construct transfected into HEK293 cells (protein)
chain: B1 chain with R540Q, C935R
B21: Lys480Asn: NPR2 protein-altering variant, expression construct transfected into HEK293 cells (protein)
chain: B1 chain with K458N, C935R
B22: Glu727Gln: NPR2 protein-altering variant, expression construct transfected into HEK293 cells (protein)
chain: B1 chain with E705Q, C935R
B23: HIS508Asp: NPR2 protein-altering variant, expression construct transfected into HEK293 cells (protein)
chain: B1 chain with H486D, C935R

Tested on: NPR2
Test: cGMP catchpoint assay of NPR2 variants in transfected HEK293 cells treated with 20 nM CNP
Assay type: cell-based
Design: key to Lable: loss-of-function (LoF); Gain-of-function (GoF)
Settings: for average phenotype: cGMP normalized to RedLuciferase and to WT = 1, HEK293, 20 nM CNP, 0.4 nM IBMX, at least 3 repeat experiments with 4 replicates each; for Lable: high-confidence variant class
Protocol: Described herein is an in-vitro assay (cGMP) to assess the activities of >260 NPR2 variants. NPR2 protein-altering variants have been identified in the UK Biobank study and described in Estrada et al. (Nat Commun. 2021 12 (1): 2224). NPR2-expression constructs were transfected into HEK293 cells and 3 days later cells were treated with […] IBMX and 20 nM CNP in serum-free DMEM prior to measuring cGMP levels. The cGMP catchpoint ELISA competition assay (Molecular Devices) was used to measure cGMP according to manufacturer recommendations. RedLuc was used as a transfection control (FIG. 8A).
The NPR2 alpha-fold structure was obtained from a recent alpha-fold publication (Jumper et al., Nature 596:583-589 (2021)). A list of phenotypically characterized “high-confidence” variants was generated (Table 4). Phenotype is calculated by determining levels of cGMP using a standard curve. This value to normalized to RedLuciferase (transfection control). This value is further normalized by setting WT to 1. Average value is calculated from at least 3 repeat experiments with 4 replicates each.

| Molecule | average phenotype | Lable |
| --- | --- | --- |
| B1 | 0.01553 and 0.02954 | LoF |
| B2 | 0.0158 | LoF |
| B3 | 0.01708 | LoF |
| B4 | 0.02434 | LoF |
| B5 | 0.0288 | LoF |
| B6 | 0.03025 | LoF |
| B7 | 0.03638 | LoF |
| B8 | 0.04986 | LoF |
| B9 | 0.0551 | LoF |
| B10 | 0.05673 | LoF |
| B11 | 0.05949 | LoF |
| B12 | 0.06785 | LoF |
| B13 | 0.07079 | LoF |
| B14 | 0.07978 and 0.01124 | LoF |
| B15 | 0.0847 | LoF |
| B16 | 0.08478 | LoF |
| B17 | 0.08861 | LoF |
| B18 | 1.493 | GoF |
| B19 | 1.515 | GoF |
| B20 | 1.554 and 1.629 | GoF |
| B21 | 1.689 | GoF |
| B22 | 1.705 | GoF |
| B23 | 1.74 | GoF |
